Here are results for three molecules from patent publication US20140031769A1, “THERAPEUTIC AGENT FORMULATIONS FOR IMPLANTED DEVICES” (ForSight Vision4, Inc., priority 2010, published 2014).

The nature of data set [1]: Solubility of therapeutic agent suspension in buffer. Format: physicochemical. Particulars: aqueous buffer; in the buffer at 37C. An excerpt:
The therapeutic agent stored in the reservoir of the container comprises at least one of a solid comprising the therapeutic agent, a solution comprising the therapeutic agent, a suspension comprising the therapeutic agent, particles comprising the therapeutic agent adsorbed thereon, or particles reversibly bound to the therapeutic agent. For example, reservoir may comprise a suspension of a cortico-steroid such as triamcinolone acetonide to treat inflammation of the retina.

Data set [2] can be described thus: Critical micelle concentration (CMC) of surfactant, surface tension with Wilhelmy plate. Format: physicochemical. The source says: The CMC can be determined from a variety of techniques such as measurements of surface tension using a Wilhelmy plate. The CMC for a particular surfactant may be dependent on a variety of parameters such as the concentrations of other components in the formulation and the temperature.
Surface tension measurements may be performed with a Wilhemy plate to determine the CMC; i.e., polysorbate 20 concentration threshold for constant surface tension. Devices can then be filled with formulations containing polysorbate 20 concentrations that are 0, 1, 5 and 20 times the CMC. These devices can be subjected to drug release testing and stability assays as described in Example 2.

The conditions of data set [3]: monkey, cited from earlier work.
For data set [4] the following is noted: RRI of 0.02 and reservoir volume of 25 uL; as described in U.S. Pub. No. 2010/0255061; cited from earlier work.
For data set [5] the following is noted: rabbit, cited from earlier work.
The conditions of data set [6]: human, cited from earlier work.

In brackets after ≈: the same amount, converted by molar mass. Like-named read-outs stand apart in the source and are kept apart here.

`CC1(C)O[C@@H]2C[C@H]3[C@@H]4CCC5=CC(=O)C=C[C@]5(C)[C@@]4(F)[C@@H](O)C[C@]3(C)[C@]2(C(=O)CO)O1` [triamcinolone acetonide]: in data set [1], the solubility – broadly, how much of the substance goes into solution per volume – was around 19 µg/mL (≈ 43.7 µM).
Take Polysorbate 20: the “CMC (wt %)” value in data set [2] (CMC 1e−5 M) was found to be 0.001% wt %; in data set [2] (CMC 8e−5 M), 0.01% wt %.
As to “Ranibizumab: antibody derivative (Fab fragment), VEGF inhibitor; active ingredient of Lucentis™”, the “half-life in the vitreous” value in data set [3] (listed as Lucentis™) was “two to four”; in data set [3] (listed as ranibizumab), “approximately 3 days”; in data set [5] (listed as Lucentis™), “two to four”; in data set [5] (listed as ranibizumab) it was “approximately 3 days”; in data set [6] (listed as Lucentis™), “about nine”; in data set [6] (listed as ranibizumab), around 220 h. Besides, the “half-life in device 100” value in data set [4] is recorded as “about 100 days”.
